Earlier results, collected in publication PMC11204982.

Biological target: CD20 (Homo sapiens) (UniProt P11836)
Chain of UniProt P11836 (P11836 whole entry): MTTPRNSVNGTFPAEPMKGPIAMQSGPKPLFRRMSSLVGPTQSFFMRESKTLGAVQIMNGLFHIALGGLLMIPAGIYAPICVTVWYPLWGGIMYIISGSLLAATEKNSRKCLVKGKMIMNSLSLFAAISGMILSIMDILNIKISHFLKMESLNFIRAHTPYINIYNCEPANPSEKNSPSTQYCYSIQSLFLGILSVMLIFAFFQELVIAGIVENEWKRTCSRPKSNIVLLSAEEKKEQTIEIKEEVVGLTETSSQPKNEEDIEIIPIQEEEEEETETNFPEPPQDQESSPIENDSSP

Q: For rituximab, which Kd is on record?
A: 5.2 nM
